Source: US20230416357A1 (UCB, published 2023)
Where two headings read alike, the source gives them in different places.

T1: Human IL22 (human, UniProt Q9GZX6 34-179)
T1 sequence: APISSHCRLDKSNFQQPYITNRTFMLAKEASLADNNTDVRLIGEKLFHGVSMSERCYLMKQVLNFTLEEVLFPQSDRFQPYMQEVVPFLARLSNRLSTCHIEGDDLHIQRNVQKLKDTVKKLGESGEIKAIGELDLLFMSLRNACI


How the values were obtained:
[1] = target: T1, Human IL22; experiment: cell-based or functional assay
[2] = target: T1, Human IL22; experiment: SPR Biacore 8K; single experiment
[3] = target: T1, Human IL22; experiment: cell-based or functional assay; remark: listed apart in the source
[4] = target: T1, Human IL22; experiment: SPR Biacore T200; antibody captured on anti-human Fab (280 RU), IL22 injected at 20 nM
[5] = target: T1, Human IL22; experiment: cell-based or functional assay; remark: listed apart in the source

| IC50 (M), Geomean; COLO205 IL-10 release assay [1] | Kd [2] | IC50 (read off the curve), inhibition of IL-22-induced S100A7 release from human primary keratinocytes (NHEK) [3] | IL22 Binding at 20 nM (RU) [4] | IC50 (M), Geomean; COLO205 IL-10 release assay [5] | Binder |
| --- | --- | --- | --- | --- | --- |
| 5.68e-11 M |  |  |  |  | rabbit 11041 Fab (Fab, V domains shown) VH: QSVEESGGRLVTPGTPLTLTCTVSGFSLSSYAMIWVRQAPGEGLEWIGIIDIDGSTYYASWAKGRFTISRTSTTVDLKITSPTTGDTATYFCARDRFVGVDIFDPWGPGTLVTVSS VL: AVVLTQTASPVSAPVGGTVTIKCQASEDIYTNLAWYQQKPGQPPKLLIYWASTLASGVPSRFKGSGSGTEFTLTISDLECADAATYYCQACVYGNSADSRYTFGGGTEVVVK |
|  | < 100 pM | ~10000 pM | 40 RU | 4.27e-11 M | 11041gL13gH14 Fab (Fab, V domains shown, Humanized Fab; also called VR11041) VH: EVQLVESGGGLVQPGGSLRLSCAVSGFSLSSYAMIWVRQAPGKGLEWIGIIDIEGSTYYASWAKGRFTISRDNSKNTVYLQMNSLRAEDTAVYYCARDRFVGVDIFDPWGQGTLVTVSS VL: AVQLTQSPSSLSASVGDRVTITCQASEDIYTNLAWYQQKPGKAPKLLIYWASTLASGVPSRFSGSGSGTDFTLTISSLQPEDFATYYCQASVYGNAADSRYTFGGGTKVEIKR |
